In patent US20250043302A1, “MUTATED HYDROXYPHENYLPYRUVATE DIOXYGENASE POLYPEPTIDE, AND CODING GENE AND USE THEREOF” (BEIJING DABEINONG BIOTECHNOLOGY CO., LTD., priority 2021, published 2025):

What was measured:
Assay type in all cases: in vivo
[1] = tested on: Arabidopsis thaliana T1 plants; test: Mesotrione tolerance of transgenic Arabidopsis thaliana T1 plants (spray, bleached leaf area grade, damage score); parameters: Scores: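 damage score 0-100 computed as Σ(N×S)/(T×M)×100 over grades 0-3 with higher meaning more damage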; conditions: Table 12; for Classification and statistics of the grade of pesticide damage Grade 0: number of plants at grade 0; for Classification and statistics of the grade of pesticide damage Grade 1: number of plants at grade 1; for Classification and statistics of the grade of pesticide damage Grade 2: number of plants at grade 2; for Classification and statistics of the grade of pesticide damage Grade 3: number of plants at grade 3; for Scores: pesticide damage score
Outline: (§1)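 T1 transformants selected by glufosinate; 18-day-old plants, with empty-vector and wild-type controls, sprayed with topramezone (25–200 g ai/ha), isoxaflutole (35–280 g ai/ha) or mesotrione (52.5–420 g ai/ha), water as 0×. Bleached leaf area fraction scored at 7 DAT as grades 0–3.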

[2] = tested on: Arabidopsis thaliana T1 plants; test: Topramezone tolerance of transgenic Arabidopsis thaliana T1 plants (spray, bleached leaf area grade, damage score); conditions: Table 10; for Classification and statistics of the grade of pesticide damage Grade 0: number of plants at grade 0; for Classification and statistics of the grade of pesticide damage Grade 1: number of plants at grade 1; for Classification and statistics of the grade of pesticide damage Grade 2: number of plants at grade 2; for Classification and statistics of the grade of pesticide damage Grade 3: number of plants at grade 3; for Scores: pesticide damage score
Outline: as §1

[3] = tested on: Arabidopsis thaliana T1 plants; test: Isoxaflutole tolerance of transgenic Arabidopsis thaliana T1 plants (spray, bleached leaf area grade, damage score); conditions: Table 11; for Classification and statistics of the grade of pesticide damage Grade 0: number of plants at grade 0; for Classification and statistics of the grade of pesticide damage Grade 1: number of plants at grade 1; for Classification and statistics of the grade of pesticide damage Grade 2: number of plants at grade 2; for Classification and statistics of the grade of pesticide damage Grade 3: number of plants at grade 3; for Scores: pesticide damage score;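 as to Scores: Weighted damage index from 0 to 100 where higher means more damage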
Outline: as §1

B1: HPPDm-8-02: nucleotide sequence encoding AsHPPDm-A111T-K351N-F372A-F383W with mutated C-terminal; vector DBN11789 (nucleic acid)
DNA: ATGCCACCTACTCCAGCTACAGCTACTGGTGCTGCTGCTGCTGCCGTTACTCCTGAGCACGCTGCCAGGTCATTCCCCAGGGTGGTTCGCGTGAACCCCAGATCTGATAGGTTCCCAGTTCTGAGCTTCCACCATGTTGAGCTGTGGTGCGCTGATGCTGCTTCTGCTGCTGGCAGGTTCTCTTTCGCTCTTGGTGCTCCACTCGCTGCTAGATCTGATCTGTCTACAGGAAATAGCGCTCATGCCTCACTCCTGCTTCGCTCAGGTGCTTTGGCCTTCCTCTTCACCGCTCCATATGCTCCCCCACCTCAGGAGGCTGCTACTGCTGCTACTACAGCCTCCATTCCAAGCTTCTCAGCTGATGCCGCTAGAACCTTCGCTGCTGCTCATGGACTTGCCGTGAGGTCTGTTGGTGTTCGCGTGGCTGATGCTGCTGAGGCTTTCAGAGTTTCCGTTGCCGGCGGAGCTAGGCCAGCTTTCGCTCCTGCTGATTTGGGACATGGTTTCGGCCTGGCTGAGGTTGAGCTTTACGGTGACGTGGTTCTCCGCTTCGTGTCTTACCCAGATGAGACTGACCTGCCTTTCCTTCCCGGCTTCGAGAGAGTTTCCTCTCCTGGTGCCGTGGATTACGGCCTGACAAGGTTCGACCACGTGGTTGGAAACGTTCCCGAGATGGCTCCAGTGATCGATTACATGAAGGGCTTCCTTGGATTCCATGAGTTCGCCGAGTTCACTGCTGAGGACGTGGGAACCACTGAGTCCGGTTTGAACTCTGTGGTTCTCGCCAACAATTCTGAGGCTGTTTTGCTCCCTCTGAATGAGCCTGTGCATGGAACCAAGAGGAGAAGCCAGATTCAAACTTACCTGGAGTACCACGGTGGCCCTGGAGTTCAGCATATCGCCCTTGCTTCTAATGATGTGTTGCGCACACTCAGAGAGATGCGCGCCAGAACCCCCATGGGAGGTTTCGAGTTCATGGCCCCACCACAGGCTAAGTACTACGAGGGCGTTAGAAGGATTGCTGGAGACGTGTTGAGCGAGGAGCAGATCAATGAGTGCCAAGAGCTGGGTGTTCTTGTGGATAGGGATGACCAGGGCGTTCTGCTTCAAATTGCCACTAAGCCAGTGGGCGACCGCCCTACATTCTGGCTTGAGATGATTCAAAGAATCGGCTGCATGGAGAAGGATGAGGTTGGACAGGAGTACCAAAAGGGCGGATGCGGTGGCTTCGGAAAGGGTAACTTCAGCGAGTTGTTCAAGTCAATCGAGGAGTATGAGAAGACCTTGGAGGCCAAGCAGCTCGTGGGTTGA
modifications: mutated C-terminus; HPPDm-8-02 Nucleotide Sequence
notes: vector DBN11789
16: Classification and statistics of the grade of pesticide damage Grade 0 ([1]; mesotrione 210 g ai/ha (2×)) | Classification and statistics of the grade of pesticide damage Grade 0 ([1]; mesotrione 420 g ai/ha (4×)) | Classification and statistics of the grade of pesticide damage Grade 0 ([2]; topramezone 100 g ai/ha (4×)) | Classification and statistics of the grade of pesticide damage Grade 0 ([2]; topramezone 200 g ai/ha (8×)) | Classification and statistics of the grade of pesticide damage Grade 0 ([3]; isoxaflutole 140 g ai/ha (2×)) | Classification and statistics of the grade of pesticide damage Grade 0 ([3]; isoxaflutole 280 g ai/ha (4×))
0: Classification and statistics of the grade of pesticide damage Grade 1 ([1]; mesotrione 210 g ai/ha (2×)) | Classification and statistics of the grade of pesticide damage Grade 2 ([1]; mesotrione 210 g ai/ha (2×)) | Classification and statistics of the grade of pesticide damage Grade 3 ([1]; mesotrione 210 g ai/ha (2×)) | Scores ([1]; mesotrione 210 g ai/ha (2×)) | Classification and statistics of the grade of pesticide damage Grade 1 ([1]; mesotrione 420 g ai/ha (4×)) | Classification and statistics of the grade of pesticide damage Grade 2 ([1]; mesotrione 420 g ai/ha (4×)) | Classification and statistics of the grade of pesticide damage Grade 3 ([1]; mesotrione 420 g ai/ha (4×)) | Scores ([1]; mesotrione 420 g ai/ha (4×)) | Classification and statistics of the grade of pesticide damage Grade 1 ([2]; topramezone 100 g ai/ha (4×)) | Classification and statistics of the grade of pesticide damage Grade 2 ([2]; topramezone 100 g ai/ha (4×)) | Classification and statistics of the grade of pesticide damage Grade 3 ([2]; topramezone 100 g ai/ha (4×)) | Scores ([2]; topramezone 100 g ai/ha (4×)) | Classification and statistics of the grade of pesticide damage Grade 1 ([2]; topramezone 200 g ai/ha (8×)) | Classification and statistics of the grade of pesticide damage Grade 2 ([2]; topramezone 200 g ai/ha (8×)) | Classification and statistics of the grade of pesticide damage Grade 3 ([2]; topramezone 200 g ai/ha (8×)) | Scores ([2]; topramezone 200 g ai/ha (8×)) | Classification and statistics of the grade of pesticide damage Grade 1 ([3]; isoxaflutole 140 g ai/ha (2×)) | Classification and statistics of the grade of pesticide damage Grade 2 ([3]; isoxaflutole 140 g ai/ha (2×)) | Classification and statistics of the grade of pesticide damage Grade 3 ([3]; isoxaflutole 140 g ai/ha (2×)) | Scores ([3]; isoxaflutole 140 g ai/ha (2×)) | Classification and statistics of the grade of pesticide damage Grade 1 ([3]; isoxaflutole 280 g ai/ha (4×)) | Classification and statistics of the grade of pesticide damage Grade 2 ([3]; isoxaflutole 280 g ai/ha (4×)) | Classification and statistics of the grade of pesticide damage Grade 3 ([3]; isoxaflutole 280 g ai/ha (4×)) | Scores ([3]; isoxaflutole 280 g ai/ha (4×))
Highly resistant: Resistance evaluation ([1]; mesotrione 210 g ai/ha (2×)) | Resistance evaluation ([1]; mesotrione 420 g ai/ha (4×)) | Resistance evaluation ([2]; topramezone 100 g ai/ha (4×)) | Resistance evaluation ([2]; topramezone 200 g ai/ha (8×)) | Resistance evaluation ([3]; isoxaflutole 140 g ai/ha (2×)) | Resistance evaluation ([3]; isoxaflutole 280 g ai/ha (4×))
